Positions count from the first letter of the chain named. In names and notes the source's numbering stands.
B1: F61H: PYR1 mutant (protein, UniProt O49686 1-191, looked up, variant F61H)
Abscisic acid receptor PYR1: MPSELTPEERSELKNSIAEFHTYQLDPGSCSSLHAQRIHAPPELVWSIVRRFDKPQTYKHHIKSCSVEQNFEMRVGCTRDVIVISGLPANTSTERLDILDDERRVTGFSIIGGEHRLTNYKSVTTVHRFEKENRIWTVVLESYVVDMPEGNSEDDTRMFADTVVKLNLQKLATVAEAMARNSGDGSGSQVT
B2: I62D: PYR1 mutant (protein, UniProt O49686 1-191, looked up, variant I62D)
Abscisic acid receptor PYR1: B1 Abscisic acid receptor PYR1 with H61F, I62D
B3: F61K: PYR1 mutant (protein, listed as Arabidopsis thaliana)
chain: B1 Abscisic acid receptor PYR1 with H61K
B4: S85M: PYR1 mutant (protein, UniProt O49686 1-191, looked up, variant S85M)
Abscisic acid receptor PYR1: B1 Abscisic acid receptor PYR1 with H61F, S85M
B5: S85R: PYR1 mutant (protein, UniProt O49686 1-191, looked up, variant S85R)
Abscisic acid receptor PYR1: B1 Abscisic acid receptor PYR1 with H61F, S85R
B6: I62E: PYR1 mutant (protein, UniProt O49686 1-191, looked up, variant I62E)
Abscisic acid receptor PYR1: B1 Abscisic acid receptor PYR1 with H61F, I62E
B7: S85Q: PYR1 mutant (protein, UniProt O49686 1-191, looked up, variant S85Q)
Abscisic acid receptor PYR1: B1 Abscisic acid receptor PYR1 with H61F, S85Q
B8: S85Y: PYR1 mutant (protein, UniProt O49686 1-191, looked up, variant S85Y)
Abscisic acid receptor PYR1: B1 Abscisic acid receptor PYR1 with H61F, S85Y
B9: S85I: PYR1 mutant (protein, UniProt O49686 1-191, looked up, variant S85I)
Abscisic acid receptor PYR1: B1 Abscisic acid receptor PYR1 with H61F, S85I
B10: I62K: PYR1 mutant (protein, UniProt O49686 1-191, looked up, variant I62K)
Abscisic acid receptor PYR1: B1 Abscisic acid receptor PYR1 with H61F, I62K
B11: I84L: PYR1 mutant (protein, UniProt O49686 1-191, looked up, variant I84L)
Abscisic acid receptor PYR1: B1 Abscisic acid receptor PYR1 with H61F, I84L
B12: I62G: PYR1 mutant (protein, UniProt O49686 1-191, looked up, variant I62G)
Abscisic acid receptor PYR1: B1 Abscisic acid receptor PYR1 with H61F, I62G
B13: I62W: PYR1 mutant (protein, UniProt O49686 1-191, looked up, variant I62W)
Abscisic acid receptor PYR1: B1 Abscisic acid receptor PYR1 with H61F, I62W
B14: I62R: PYR1 mutant (protein, UniProt O49686 1-191, looked up, variant I62R)
Abscisic acid receptor PYR1: B1 Abscisic acid receptor PYR1 with H61F, I62R
B15: S85P: PYR1 mutant (protein, listed as Arabidopsis thaliana)
chain: B1 Abscisic acid receptor PYR1 with H61F, S85P
B16: S85H: PYR1 mutant (protein, UniProt O49686 1-191, looked up, variant S85H)
Abscisic acid receptor PYR1: B1 Abscisic acid receptor PYR1 with H61F, S85H
B17: S85F: PYR1 mutant (protein, UniProt O49686 1-191, looked up, variant S85F)
Abscisic acid receptor PYR1: B1 Abscisic acid receptor PYR1 with H61F, S85F
B18: S85N: PYR1 mutant (protein, UniProt O49686 1-191, looked up, variant S85N)
Abscisic acid receptor PYR1: B1 Abscisic acid receptor PYR1 with H61F, S85N
B19: F61I: PYR1 mutant (protein, UniProt O49686 1-191, looked up, variant F61I)
Abscisic acid receptor PYR1: B1 Abscisic acid receptor PYR1 with H61I
B20: S85D: PYR1 mutant (protein, UniProt O49686 1-191, looked up, variant S85D)
Abscisic acid receptor PYR1: B1 Abscisic acid receptor PYR1 with H61F, S85D
B21: S85A: PYR1 mutant (protein, UniProt O49686 1-191, looked up, variant S85A)
Abscisic acid receptor PYR1: B1 Abscisic acid receptor PYR1 with H61F, S85A
B22: S85E: PYR1 mutant (protein, UniProt O49686 1-191, looked up, variant S85E)
Abscisic acid receptor PYR1: B1 Abscisic acid receptor PYR1 with H61F, S85E
B23: K63P: PYR1 mutant (protein, UniProt O49686 1-191, looked up, variant K63P)
Abscisic acid receptor PYR1: B1 Abscisic acid receptor PYR1 with H61F, K63P
B24: S85W: PYR1 mutant (protein, UniProt O49686 1-191, looked up, variant S85W)
Abscisic acid receptor PYR1: B1 Abscisic acid receptor PYR1 with H61F, S85W
B25: S85G: PYR1 mutant (protein, UniProt O49686 1-191, looked up, variant S85G)
Abscisic acid receptor PYR1: B1 Abscisic acid receptor PYR1 with H61F, S85G
B26: S85L: PYR1 mutant (protein, UniProt O49686 1-191, looked up, variant S85L)
Abscisic acid receptor PYR1: B1 Abscisic acid receptor PYR1 with H61F, S85L
B27: I62Y: PYR1 mutant (protein, UniProt O49686 1-191, looked up, variant I62Y)
Abscisic acid receptor PYR1: B1 Abscisic acid receptor PYR1 with H61F, I62Y
B28: S85C: PYR1 mutant (protein, UniProt O49686 1-191, looked up, variant S85C)
Abscisic acid receptor PYR1: B1 Abscisic acid receptor PYR1 with H61F, S85C
B29: S85V: PYR1 mutant (protein, UniProt O49686 1-191, looked up, variant S85V)
Abscisic acid receptor PYR1: B1 Abscisic acid receptor PYR1 with H61F, S85V
B30: S85K: PYR1 mutant (protein, UniProt O49686 1-191, looked up, variant S85K)
Abscisic acid receptor PYR1: B1 Abscisic acid receptor PYR1 with H61F, S85K

Tested on: HAB1
Assay: Yeast two hybrid of pBD-PYR1 site saturation mutants with pACT-HAB1 on 10 μM ABA, β-galactosidase staining
Format: cell-based, Arabidopsis
Set-up: key: x: Mutations in PYR1 that disrupt ABA-induced binding to PYR1 to HAB1
Conditions: S. cerevisiae Y190, 10 μM ABA; dead = lack of visible staining in comparison to wild type control
Summary of the method: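 Binding was read by β-galactosidase staining of chloroform-lysed colonies after 2 days at 30° C on SD (-Leu, -Trp) plates containing 10 μM (+)-ABA. Yeast strain Y190 carried the BD-PYR1 single-substitution mutants plus the AD-HAB1 fusion. Absence of staining versus the wild-type control defined "dead" mutants.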

Molecule | Mutations in PYR1 that disrupt ABA-induced binding to PYR1 to HAB1
B1 | x
B2 | x
B3 | x
B4 | x
B5 | x
B6 | x
B7 | x
B8 | x
B9 | x
B10 | x
B11 | x
B12 | x
B13 | x
B14 | x
B15 | x
B16 | x
B17 | x
B18 | x
B19 | x
B20 | x
B21 | x
B22 | x
B23 | x
B24 | x
B25 | x
B26 | x
B27 | x
B28 | x
B29 | x
B30 | x

Source: patent publication US10919943B2, “Mutant proteins enabling agrochemical control of plant gene expression” (The Regents of the University of California, priority 2016, dated 2021)
